Five substances from PMC6519451 can be followed below.

The target in assay [1] is 26S proteasome reconstituted with Cy3-labeled base (Rpt1-I191AzF-Cy3) (S. cerevisiae) (UniProt P33299). As to the kind of experiment: FRET or BRET. (In general: Bioluminescence resonance energy transfer reports proximity on the nanometre scale.)
Assay [2] concerns the target reconstituted 26S proteasome (wild-type base, lid, Rpn10 and 20S core) (S. cerevisiae) (UniProt P33299).

Turning to “ubiquitinated titin-I27^V15P-23-K-25 (serine rich), Cy5-labeled (from UniProt P0CG63 1-76)”, the τapp of tail insertion, fast phase in assay [1] is 7.15 s.

With “ubiquitinated titin-I27^V15P-23-K-35 modified with Cy5 on its unstructured tail (from UniProt P0CG63 1-76)”, in assay [1], the kapp (1/τapp) of tail insertion, fast phase turned out to be 0.62 s⁻¹ and the τapp of tail insertion, fast phase stood at 1.61 s.

On to “ubiquitinated titin-I27^V15P-43-K-11 (from UniProt P0CG63 1-76)”, for which, in assay [2], the KM of multiple-turnover processing (Michaelis-Menten, anisotropy) worked out at 2 µM.

“ubiquitinated titin-I27^V15P-23-K-11, Cy5-labeled (from UniProt P0CG63 1-76)” registered a kapp (1/τapp) of tail insertion, fast phase in assay [1] of 1.4 s⁻¹.

In assay [1], “ubiquitinated titin-I27^V15P-23-K-25, Cy5-labeled (from UniProt P0CG63 1-76)” gave a τapp of tail insertion, fast phase of 1.73 s.
